The series can be described thus: label from the status in PepcDB records.
Take “MMNSDRNKYRKENDMGKQVRDKEVQEIMDYIMNKGEDSEERVYKLFKMNGVIYEIACNISRNQNSETTQNQIRKFYDYTIKINSKDEKKAKIKLAMMMPQIYYAIQRKVISSDSPFVKFLEDSIDKLNKTEDFENAFNRFLNVFQAIVAYSKKSRSDRNE”: the protein production entry is recorded as “failed”.

“MMNYNTPKVSIVVPSLNSISYIRECIDSILNQTLKDIEILCIDANSTDGTLEVLKNYEKKDKRLRVIISDKKSYGYQMNLGIKEAKGEYLGIVESDDYIKTNMYERLYEIAKKNDCEVVKGDFYILESNKGKYSKITPIDFLYNQIISFKTHPNIFNFQSINPIGIYRLDLLRTNQIKLNETPGASYQDNGLWFQIFALAKSIYFINEAFYMLRRDNPNSSVKSKEKVYCACEEYDFIRDFLKKHPDLEKTLAPICALHRFGNYMFTLERIDERYKLDFLKRFSQDFRKILKDKELDENLFGDGDMKIIYSIVENPENYYFLYMGYCNDMFGKLYFGASERIKWQLSYRIGKLLIDLKNPVQILKFPFKLFLEIKQFKFEQKIYKTTIKFYPNLQLPPLEEYSDYEQALKTKKHLSYILGKSFINNPILFIFKIKKIYKQYKKDISSSKKNIKELSDYDFLLNRHKQIFDYTPDFKCPVTFNEKLIYRILYDRSCIYSFLADKIKMRFYVASALSDNHEYSWDKIDILNEKSILFNNIDDLQDKIFETNKCKYLPKIYGIYKNIYDINFNELPNSFVLKTNHDCGGYVIVENKQEFLRDTVVFSNAMKKLKKHLEWNYYSVFREWHYKDIEPRVFAEELLLGENKKPADTYKFHIFDKENLSNNFIQVTTDRFDNYQRAMFDLSWNLAPFNFMYDNKNVTMIPKKPNLLDSMINISLILAKPFDYVRVDLYQFDKKIYIGELTFTHGAAGEKVIPKEWDKKLGDLWRLKRLDNASK”: the protein production result is recorded as “failed”. Consider “MMQESGTETKSNGSAIQNGSGGSNHLLECGGLREGRSNGETPAVDIGAADLAHAQQQQQQWHLINHQPSRSPSSWLKRLISSPWELEVLQVPLWGAVAETKMSGPVCQPNPSPF”, for which the protein production entry is recorded as “failed”. Then “MMQPKFCTRCLAMSTRPRITFNRDGVCNACLWQEQKSSVDWDDRNSKLLSLLDSHRSKNNSYDVIVPVSGGKDGSYVAYNLKHKFNMNPLCVTVTPPLETQLGAQNLKNFIKSGYDQVSININPETIRNINRAGFVHHGFPYFGWLVAIVTSVTRVAQQMNVPLIMYGEDAEMEYGGSSEKANLTTFGIEYMKRVGFEAGYEKVFSTLDLSDSDLYWLTFAEQDKTQVLFSHWSYFENWDPYRNYLVAKKQCGLQEADDTNFGTFTNFAQNDQYLYVLHTYLMYLKFGFGRSNQDACIEIRRGAMKREQAINLVRLYDGQFPDEFLQMYLEYYQMSEAEFNATLARWVNKDLFELKDGLWSPTFTIQ”, with “failed”; and “MMQVQYIIWLSCCFKRMNKDREFTESKTIKQNTKMKKRILGAALLVAIAVAAGWNYNQSRNEVPLSDLALANAEALAQGETDWGNCTYYGCIVDFSSTCNVYSSIWGNLIKVCPNMRG”, with “failed”; and “MMRAKVNQGINLNDYNGVWVIGEQREGKINPVTIELIGEGRKLADQLGKELAVVIAGYEVEKEVKELLHYSVDKVYYINDPLLKDFTTDGYAISIANLIERKKPEVVLVGATSIGRDIAPRIAGKVGTGLTADCTKLEIDSTDNKLLQTRPAFGGNLMATIVCPKNRPQMSTVRPGVMAKAVRNESETGILEVVTPELTEKMIRTRLVEIL”, with “failed”. With “MMRRQASVLLLVSMVSATVLPVFARAPGEREPSCAATSIVLPAGARYPNGIAHAADGTLYVGLVTSGRILRKPPGGEWETFFAGSPAIFAATALRLDEPRGLLWGNSPDFLPAGRRRPHGVFALDLASGAVRRYLTLPGDGMGNDLAVAPDGTVYLSETRDGSLMRLRPGEPAFQVLLRDSRLAGPGGLGAAGIVRVDDDTLLVGNFGSGAIHVVEGVATRPRLREMELPRTLENPDGMALAPDGSLIVLENAIRSGAGKVLRIAEPLAPGRRGIEVIREGLESPVNLTVTGQGCAYVSESRIRHRLLPGREGEVPARFLIHRLPLDAAGGR”, the protein production result is reported as “failed”. Regarding “MMRRYFYQFSQKMITSVWWLLFVPMLLFAVMSPNIILGDNATFGTSTTLLTTGLIIVIVAVLIMNYAYPRVHRGLYRLLITKQLRTAGVLLALVFIGQLVFVTFVHPVSGFDAGMLHYAATSAKHVQEVGVTAYYSLNQNNMPIMLFMHWLSEVTGQTSWQFFDYVTLFFVDLSAAFNLMSVFVVRRSALGIAMYLHAGWLAVFPSIIMPYTDAWGLPLVSFFMLCYFVMSQTKRPPLLRVAAAVGFGVSVTLTYFMKPSSIIPVIAIAIISFLARLRSRQGSQTTMIFVTVAMAILMLESAGLTYHYTNQAIQNQTYIKIDKSRSIPAIHFMAMGVYGSGGYSEKQAIQMAVLPTKAQKTAYSIKMLKRQLKKLGPWGYLEFLVKKQRNNTADGTFGWLKEGNFFRENQKPSNQGFSNWLKNFIYLYGRHIADFRFVAQLWWLVLLVIIALGFGPRWQLIQLLRLAMIGGFIFLLLFEGGRSRYLIQYLPCLLLLGAFSFERAVANIRRVRDWYQRKLRAAIAADESE”, the protein production entry is on record as “failed”. Then “MMSRKRWLALIAAAMLFVASAAISLVSSPAVDVDEWVGTGTSYKQTIVETGTDFGKSIAILELSGVIQDTGSAPSLLNTGVYHHRDFLKQLEKAGEDPNIAGIILQVNTPGGGVLESAEIHKQVEEIVQDSEKPVYVSMGNMAASGGYYISAPATKIYAHPQTITGSIGVIMQSIDISGLAENLGIEFNTFKSGPYKDILSQTREVTDEEEDILQTLVDEMYDEFVRVIVDGRGMSETEVRELADGRIYTGSQAVATGLVDELGGLDDVIESMKEDLGADYNVIRYEHSLGLYDFFSMSTNRLLSPSYELQSIERLLNQSNTPTLQYLYAELEHHHHHH”, with “not failed”; and “MMSTPALRPYLPEDAAVTAAIFVASIEQLTADDYSEEQQEAWASAADDEAKFAARLSGQLTLIATLQGVPVGFASLKGPDHIDMLYVHPDYVGRDVGTTLIDALEKLAGARGALILTVDASDNAAEFFAKRGYVAKQRNTVSINGEWLANTTMTKSLADSAAPGASS”, with “not failed”. Then “MMSVLARMRVMRHRAWQGLVLLVLALLLSSCGWRGISNVAIPGGPGTGPGSYTIYVQMPDTLAINGNSRVMVADVWVGSIRAIKLKNWVATLTLSLKKDVTLPKNATAKIGQTSLLGSQHVELAAPPDPSPVPLKDGDTIPLKRSSAYPTTEQTLASIATLLRGGGLVNLEGIQQEINAIVTGRADQIRAFLGKLDTFTDELNQQRDDITRAIDSTNRLLAYVGGRSEVLNRVLTDLPPLIKHFADKQELLINASDAVGRLSQSADQYLSAARGDLHQDLQALQCPLKELRRAAPYLVGALKLILTQPFDVDTVPQLVRGDYMNLSLTLDLTYSAIDNAFLTGTGFSGALRALEQSFGRDPETMIPDIRYTPNPNDAPGGPLVERGNRQC”, with “failed”; and “MMTCDEIRLPKPPRLQPFLFLLRNDSLSKYSQPPRFDLARILFSLVFITIMIIACFWVVQPFILGFAWACMVVIATWPMLIKFQALLWGRRSLAVLVMTLLLILLFVVPIAVLVSSVIDNSSALMSWGSRQENLSPPTLEWLTSIPLVGEKLFNSWQALLQSGGSGLFAKVQPYFGKTATWLVAQAAHVGRFLMHCSLMLIFSALLYYKGEAVAKAVRHFAIRLGRERGDAAVILAAQSIRAVALGVVVTAIVQSVLGGIGLGLSGIPYTTLLTVLMFLCCLAQLGPLLVLIPAIIWLYWTGDNTWGTILLVWSCVVGTIDNVIRPMLIRMGADLPMLLILSGVIGGLLAFGMIGLFIGPVVLAVSYRLLFAWMREIPEPQNLLSVNTTKTPNKES”, with “failed”.

Values taken from a protein production outcome set (Wang et al. 2014).
